Test results published in patent publication US20200239543A1 (ALX ONCOLOGY, published 2020).
One block for each molecule: values may come before it.

Assays:
[1] = molecular target: T1, human Fcγ receptor RIIA (CD32a) (human, UniProt P12318 36-218); experiment: SPR (ProteOn XPR36), biotinylated Fc construct on NLC chip, hFcγR as analyte, KD,app
T1 construct: bought recombinant protein; also called hFcγR
T1 sequence (looked up): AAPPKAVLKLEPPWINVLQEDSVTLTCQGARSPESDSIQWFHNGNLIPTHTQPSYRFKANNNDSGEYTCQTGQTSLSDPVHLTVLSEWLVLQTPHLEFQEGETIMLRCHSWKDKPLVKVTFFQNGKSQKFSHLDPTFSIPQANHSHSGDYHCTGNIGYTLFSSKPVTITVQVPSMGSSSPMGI

[2] = molecular target: T2, human Fcγ receptor RI (CD64) (human, UniProt P12314 16-288); experiment: as above
T2 construct: bought recombinant protein; also called hFcγRI; hFcγR

[3] = molecular target: T3, human Fcγ receptor RIIB/C (CD32b/c) (human, UniProt P31994 46-217); experiment: as above
T3 construct: bought recombinant protein; also called CD32c; hFcγR
T3 sequence (looked up): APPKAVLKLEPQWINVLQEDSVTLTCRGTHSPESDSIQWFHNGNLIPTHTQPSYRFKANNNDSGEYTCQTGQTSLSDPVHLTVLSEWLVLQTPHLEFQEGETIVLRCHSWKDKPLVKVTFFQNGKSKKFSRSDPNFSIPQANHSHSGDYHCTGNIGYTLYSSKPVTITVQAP

[4] = molecular target: T4, human Fcγ receptor RIIIA (CD16a) (human, UniProt P08637 17-208); experiment: as above
T4 construct: bought recombinant protein; also called hFcγR

[5] = molecular target: T5, EGFR-ECD (epidermal growth factor receptor extracellular domain produced in HEK293 cells) (UniProt P00533 25-645, limits assumed); experiment: SPR (Proteon GLC chip), EGFR-ECD injected in the second injection over construct A bound to immobilised CD47
T5 construct: extracellular domain

[6] = molecular target: T6, human CD47 (human, UniProt Q08722 19-139); experiment: SPR (Biacore T100 and ProteOn XPR36)
T6 construct: extracellular domain; also called CD47 ECD

[7] = molecular target: T6, human CD47; experiment: SPR (Proteon GLC chip), CD47 immobilised by amine coupling, construct injected as analyte in the first injection (100 nM per paragraph 377)
[8] = molecular target: T5, EGFR-ECD (epidermal growth factor …); experiment: SPR (Proteon GLC chip), EGFR-ECD injected in the second injection over construct B bound to immobilised CD47
[9] = molecular target: T6, human CD47; experiment: SPR as in Example 1
[10] = molecular target: T7, mouse CD47 (mouse, UniProt Q61735 19-140, limits assumed); experiment: SPR, 25 C, 1:1 Langmuir fit
T7 construct: also called mouse CD47 protein
T7 sequence (looked up): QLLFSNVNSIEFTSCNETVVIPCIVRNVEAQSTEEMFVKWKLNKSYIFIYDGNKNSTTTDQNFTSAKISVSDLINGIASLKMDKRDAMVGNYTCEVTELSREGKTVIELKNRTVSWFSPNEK

[11] = molecular target: T6, human CD47; experiment: SPR, 25 C, 1:1 Langmuir fit
[12] = molecular target: T1, human Fcγ receptor RIIA (CD32a); experiment: SPR (ProteOn XPR36), biotinylated Fc construct on NLC chip, hFcγR as analyte
[13] = molecular target: T2, human Fcγ receptor RI (CD64); experiment: as above
[14] = molecular target: T4, human Fcγ receptor RIIIA (CD16a); experiment: as above
[15] = molecular target: T3, human Fcγ receptor RIIB/C (CD32b/c); experiment: as above
[16] = molecular target: T5, EGFR-ECD (epidermal growth factor …); experiment: SPR (Proteon GLC chip), EGFR-ECD injected in the second injection over construct C bound to immobilised CD47

T2 sequence (P12314 16-288 limits assumed): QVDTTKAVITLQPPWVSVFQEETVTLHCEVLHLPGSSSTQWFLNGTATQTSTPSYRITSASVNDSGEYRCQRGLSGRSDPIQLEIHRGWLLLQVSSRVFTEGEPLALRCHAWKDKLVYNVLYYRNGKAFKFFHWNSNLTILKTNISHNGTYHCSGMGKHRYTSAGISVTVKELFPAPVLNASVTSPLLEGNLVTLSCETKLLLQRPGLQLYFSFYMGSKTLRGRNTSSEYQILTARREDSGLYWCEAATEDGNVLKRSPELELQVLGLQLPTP
T4 sequence (P08637 17-208 limits assumed): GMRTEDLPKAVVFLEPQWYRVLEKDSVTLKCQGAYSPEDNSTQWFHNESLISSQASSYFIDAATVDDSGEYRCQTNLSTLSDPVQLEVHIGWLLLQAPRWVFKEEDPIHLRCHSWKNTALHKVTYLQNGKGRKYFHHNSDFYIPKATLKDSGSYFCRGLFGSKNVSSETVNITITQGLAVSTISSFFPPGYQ
T6 sequence (Q08722 19-139 limits assumed): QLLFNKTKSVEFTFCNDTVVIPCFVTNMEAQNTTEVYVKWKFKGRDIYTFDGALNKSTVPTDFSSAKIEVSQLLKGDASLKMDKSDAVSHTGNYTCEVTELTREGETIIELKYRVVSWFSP

Kd [1]: 810 nM
Kd [2]: 1 nM
Kd [3]: 850 nM
Molecule: Fc variant construct IgG4_S228P (Fc fusion)

Kd [1]: 1200 nM
Kd [2]: 60 nM
Kd [4]: 2400 nM
Kd [3]: 1100 nM
Molecule: Fc variant construct IgG4_S228P, L235E (Fc fusion)

binding result [5]: no binding
Kd [6]: 0.139 nM
B1: SIRP-α-Fc fusion, homodimer of SEQ ID NO: 136 (Fc fusion)
chain: EEELQIIQPDKSVLVAAGETATLRCTITSLFPVGPIQWFRGAGPGRELIYNQREGPFPRVTTVSDTTKRNNMDFSIRIGAITPADAGTYYCVKFRKGSPDDVEFKSGAGTELSVRAKPSDKTHTCPPCPAPEAAGAPSVFLFPPKPKDTLMISRTPEVTCVVVDVSHEDPEVKFNWYVDGVEVHNAKTKPREEQYASTYRVVSVLTVLHQDWLNGKEYKCKVSNKALPAPIEKTISKAKGQPREPQVYTLPPSREEMTKNQVSLTCLVKGFYPSDIAVEWESNGQPENNYKTTPPVLDSDGSFFLYSKLTVDKSRWQQGNVFSCSVMHEALHNHYTQKSLSLSPG

binding result [7]: binds
binding result [8]: no binding
B2: single-arm SIRP-α-Fc fusion, heterodimer of SEQ ID NO: 139 (an Fc variant) and SEQ ID NO: 142 (a SIRP-α-Fc fusion) (Fc fusion)
chain 1: EEELQIIQPDKSVLVAAGETATLRCTITSLFPVGPIQWFRGAGPGRELIYNQREGPFPRVTTVSDTTKRNNMDFSIRIGAITPADAGTYYCVKFRKGSPDDVEFKSGAGTELSVRAKPSDKTHTCPPCPAPEAAGAPSVFLFPPKPKDTLMISRTPEVTCVVVDVSHEDPEVKFNWYVDGVEVHNAKTKPREEQYASTYRVVSVLTVLHQDWLNGKEYKCKVSNKALPAPIEKTISKAKGQPREPQVYTLPPSREEMTKNQVSLWCLVKGFYPSDIAVEWESNGQPENNYKTTPPVLDSDGSFFLYSKLTVDKSRWQQGNVFSCSVMHEALHNHYTQKSLSLSPGK
chain 2: DKTHTCPPCPAPEAAGAPSVFLFPPKPKDTLMISRTPEVTCVVVDVSHEDPEVKFNWYVDGVEVHNAKTKPREEQYASTYRVVSVLTVLHQDWLNGKEYKCKVSNKALPAPIEKTISKAKGQPREPQVYTLPPSREEMTKNQVSLSCAVKGFYPSDIAVEWESNGQPENNYKTTPPVLDSDGSFFLVSKLTVDKSRWQQGNVFSCSVMHEALHNHYTQKSLSLSPGK
notes: knob and hole heterodimer

Kd [9]: 0.0351 nM
Kd [10]: 33.2 nM
Kd [11]: 0.0104 nM
binding result [12]: no binding (tested: 5000 nM)
binding result [13]: no binding (tested: 5000 nM)
binding result [14]: no binding (tested: 5000 nM)
binding result [15]: no binding (tested: 5000 nM)
B3: SIRP-α D1 variant fused to Fc variant IgG1 L234A, L235A, G237A, N297A, SEQ ID NO: 96 (Fc fusion)
chain: EEELQIIQPDKSVLVAAGETATLRCTITSLFPVGPIQWFRGAGPGRVLIYNQRQGPFPRVTTVSDTTKRNNMDFSIRIGNITPADAGTYYCIKFRKGSPDDVEFKSGAGTELSVRAKPSDKTHTCPPCPAPEAAGAPSVFLFPPKPKDTLMISRTPEVTCVVVDVSHEDPEVKFNWYVDGVEVHNAKTKPREEQYASTYRVVSVLTVLHQDWLNGKEYKCKVSNKALPAPIEKTISKAKGQPREPQVYTLPPSREEMTKNQVSLTCLVKGFYPSDIAVEWESNGQPENNYKTTPPVLDSDGSFFLYSKLTVDKSRWQQGNVFSCSVMHEALHNHYTQKSLSLSPGK

binding result [7]: binds
binding result [16]: no binding
B4: single-arm SIRP-α-Fc fusion, heterodimer of SEQ ID NO: 139 (an Fc variant) and SEQ ID NO: 138 (a SIRP-α Fc fusion) (Fc fusion)
chain 1: EEELQIIQPDKSVLVAAGETATLRCTITSLFPVGPIQWFRGAGPGRVLIYNQRQGPFPRVTTVSDTTKRNNMDFSIRIGAITPADAGTYYCIKFRKGSPDDVEFKSGAGTELSVRAKPSDKTHTCPPCPAPEAAGAPSVFLFPPKPKDTLMISRTPEVTCVVVDVSHEDPEVKFNWYVDGVEVHNAKTKPREEQYASTYRVVSVLTVLHQDWLNGKEYKCKVSNKALPAPIEKTISKAKGQPREPQVYTLPPSREEMTKNQVSLWCLVKGFYPSDIAVEWESNGQPENNYKTTPPVLDSDGSFFLYSKLTVDKSRWQQGNVFSCSVMHEALHNHYTQKSLSLSPGK
chain 2: DKTHTCPPCPAPEAAGAPSVFLFPPKPKDTLMISRTPEVTCVVVDVSHEDPEVKFNWYVDGVEVHNAKTKPREEQYASTYRVVSVLTVLHQDWLNGKEYKCKVSNKALPAPIEKTISKAKGQPREPQVYTLPPSREEMTKNQVSLSCAVKGFYPSDIAVEWESNGQPENNYKTTPPVLDSDGSFFLVSKLTVDKSRWQQGNVFSCSVMHEALHNHYTQKSLSLSPGK
notes: knob and hole heterodimer

binding result [12]: no binding (tested: 5000 nM)
binding result [13]: no binding (tested: 5000 nM)
binding result [14]: no binding (tested: 5000 nM)
binding result [15]: no binding (tested: 5000 nM)
B5: SIRP-α Fc construct with Fc variant IgG2_N297A, SEQ ID NO: 128 (Fc fusion)
chain: EEELQIIQPDKSVLVAAGETATLRCTITSLFPVGPIQWFRGAGPGRVLIYNQRQGPFPRVTTVSDTTKRNNMDFSIRIGNITPADAGTYYCIKFRKGSPDDVEFKSGAGTELSVRAKPSERKCCVECPPCPAPPVAGPSVFLFPPKPKDTLMISRTPEVTCVVVDVSHEDPEVQFNWYVDGVEVHNAKTKPREEQFASTFRVVSVLTVVHQDWLNGKEYKCKVSNKGLPAPIEKTISKTKGQPREPQVYTLPPSREEMTKNQVSLTCLVKGFYPSDIAVEWESNGQPENNYKTTPPMLDSDGSFFLYSKLTVDKSRWQQGNVFSCSVMHEALHNHYTQKSLSLSPGK
